For three substances, K half, stopped-flow, Cy3-43mer ssDNA (15 nM), RAD-51 1 uM pre-mixed with increasing RFS-1/RIP-1 (up to 1 uM), no nucleotide: reduction of the fluorescence increase due to RAD-51 binding to ssDNA and IC50 results are on record in paper PMC8452638.

Data set [1] deals with RAD-51 (nematode). Description: stopped-flow Cy3 fluorescence, competitor challenge. The conditions noted are these: Cy3 in backbone after nt 21; SF buffer: 50 mM Tris-HCl pH 7.5, 5 mM MgCl2, 50 mM NaCl, 2 mM ATP or ADP or no nucleotide; EMSA 25 C with 0.125% glutaraldehyde; BLI room temperature with ….
For data set [2], the target named is RAD-51 (nematode) (UniProt Q95Q25).
The subject of data set [3] is RAD-51 (nematode). Description: stopped-flow Cy3 fluorescence. The conditions noted are these: SF buffer: 50 mM Tris-HCl pH 7.5, 5 mM MgCl2, 50 mM NaCl, 2 mM ATP or ADP or no nucleotide; EMSA 25 C with 0.125% glutaraldehyde; BLI room temperature with ….

On to “TTTTTTTTTTTTTTTTTTTTTTTTTTTTTTTTTTTTTTTTTTT [(Int21)-Cy3-43mer]”, for which, in data set [1], the K half amounted to 26 nM. Substance “RFS-1/RIP-1 complex (from UniProt P34348 1-245)” displayed a stopped-flow, Cy3-43mer ssDNA (15 nM), RAD-51 1 uM pre-mixed with increasing RFS-1/RIP-1 (up to 1 uM), no nucleotide: reduction of the fluorescence increase due to RAD-51 binding to ssDNA in data set [2] of 3 fold. As a reminder, the IC50 is the concentration at which inhibition is half-maximal. Low values mean greater potency in that assay, high ones weaker potency in that assay. For “TTTTTTTTTTTTTTTTTTTTTTTTTTTTTTTTTTTTTTTTTTT [Cy3-43mer (label position not stated)]”, the IC50 in data set [3] came out at 200 nM.
